Results as given in patent US20140234325A1 (ALBERT EINSTEIN COLLEGE OF MEDICINE, published 2014).

T1: staphylococcal enterotoxin A (SEA) (Staphylococcus aureus, UniProt P0A0L1 25-257)
T1 sequence: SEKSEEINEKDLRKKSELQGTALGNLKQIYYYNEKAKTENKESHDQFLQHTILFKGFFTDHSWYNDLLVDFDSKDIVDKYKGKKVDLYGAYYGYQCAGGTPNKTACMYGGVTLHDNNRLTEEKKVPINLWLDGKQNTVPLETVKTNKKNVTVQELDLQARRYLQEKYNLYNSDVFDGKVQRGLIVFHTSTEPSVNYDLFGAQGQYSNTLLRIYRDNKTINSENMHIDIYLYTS

T2: toxic shock syndrome toxin-1 (TSST-1) (Staphylococcus aureus, UniProt P06886 41-234)
T2 sequence: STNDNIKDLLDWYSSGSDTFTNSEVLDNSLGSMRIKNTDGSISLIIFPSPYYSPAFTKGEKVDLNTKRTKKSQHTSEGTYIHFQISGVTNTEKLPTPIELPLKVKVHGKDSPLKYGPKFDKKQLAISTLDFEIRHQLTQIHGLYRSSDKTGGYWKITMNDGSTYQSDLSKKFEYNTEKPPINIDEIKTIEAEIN


Experiments:
[1] = target: T1, staphylococcal enterotoxin A (SEA); test: Western blot with purified toxin
[2] = target: T2, toxic shock syndrome toxin-1 (TSST-1); test: Western blot with purified toxin

| Binder | binding result [1] | binding result [2] |
| --- | --- | --- |
| mAb 14G8 (antibody, V domains shown) VH: EVQLLESGGGLVQPGGSLKLSCATSGFTFSAYGLSWVRQTPERRLEWVASISGGGSVYYPDSVKGRFTISRDTAGDILFLQMNSLRSEDSAIYYCVRDLYGDYVGRYAYWGQGTLVIVSA VL: DIVMTQSPATLSVTPGDRVSLSCRASQSIGDYLHWYQQKSHESPRLLINYASQSISGIPSRFSGSGSGSDFTLIINSVEPEDVGVYYCQNGHSFPYTFGGGTKLEIR | no binding | no binding |
| mAb 20B1 (antibody, V domains shown) VH: QIQLVQSGPELKKPGETVRISCKASGYIFTIAGIQWVQKMPGRGLRWIGWINTHSGVPEYAEEFKGRFAFSLETSARTAYLQISNLKDEDTATYFCARIYYGNNGGVMDYWGQGTSVTVSS VL: DIQMTQSPSSLSASLGERVSLTCRASQEISDYLTWLQQKPDGTIKRLIYVASSLDSGVPKRFSGSRSGSDYSLTISSLESEDFADYYCLQYANYPWTFGGGTKLEIR | no binding | no binding |
| mAb 6D3 (antibody, V domains shown) VH: QVQLQQSGAELVKPGASVKLSCKASGYTFTSHWMHWVKQRPGQGLEWIGEIDPSDSYINYNQIFEGKATLTVDKSSTTAYLQLSSLTSEDSAVYYCARTAGLLAPMDYWGQGTSVTVSS VL: DIVMTQSPSSLTVTAGEKVTMTCKSSQSLFNSGNQKNFLTWYQQIPGQPPKLLIYWASTRDSGVPDRFTGSGSGTDFTLTISSVQAEDLAVYYCQNDYTYPLTFGVGTKLELK | no binding | no binding |
